Source: publication PMC13138755, “Potential Rad54 separation of function mutation highlights unique roles during homologous recombination”

Molecular target: T1, Rad54 (Saccharomyces cerevisiae, UniProt P32863 1-898)
T1 sequence: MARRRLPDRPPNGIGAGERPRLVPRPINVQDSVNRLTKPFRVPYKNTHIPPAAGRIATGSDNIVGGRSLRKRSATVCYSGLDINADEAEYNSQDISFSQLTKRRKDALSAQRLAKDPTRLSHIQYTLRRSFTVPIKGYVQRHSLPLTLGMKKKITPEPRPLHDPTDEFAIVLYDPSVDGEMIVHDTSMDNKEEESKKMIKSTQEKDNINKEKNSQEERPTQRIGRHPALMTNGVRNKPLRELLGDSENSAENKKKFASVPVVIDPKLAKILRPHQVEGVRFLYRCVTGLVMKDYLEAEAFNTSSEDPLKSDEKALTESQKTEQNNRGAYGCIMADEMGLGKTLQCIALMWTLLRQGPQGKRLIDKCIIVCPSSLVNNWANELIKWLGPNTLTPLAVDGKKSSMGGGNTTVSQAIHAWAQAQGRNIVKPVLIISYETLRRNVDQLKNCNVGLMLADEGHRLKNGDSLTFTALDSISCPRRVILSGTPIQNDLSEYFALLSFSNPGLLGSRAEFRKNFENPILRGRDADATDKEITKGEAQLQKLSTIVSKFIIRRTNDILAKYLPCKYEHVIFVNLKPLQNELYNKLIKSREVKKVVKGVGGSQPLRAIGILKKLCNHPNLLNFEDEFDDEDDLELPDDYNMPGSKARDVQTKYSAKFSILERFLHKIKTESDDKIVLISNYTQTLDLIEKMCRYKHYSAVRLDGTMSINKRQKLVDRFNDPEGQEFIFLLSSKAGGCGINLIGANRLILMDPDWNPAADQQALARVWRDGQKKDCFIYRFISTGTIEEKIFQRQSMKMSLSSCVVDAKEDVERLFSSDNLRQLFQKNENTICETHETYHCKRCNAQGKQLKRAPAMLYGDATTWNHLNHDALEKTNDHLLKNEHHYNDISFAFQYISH
Test: EMSA; apparent Kd; Hill fit; 3 mM Mg2+; EMSA: 35 mM Tris-Cl pH 7.5, 3 mM MgCl2, 50 mM KCl, 1 mM DTT, 10% glycerol, 10 nM DNA, 30 C, 5 min, 8% native PAGE in 0.5x TBE; DNA curtains: HR buffer (composition not given), 10 nM GFP-Rad54, flow 0.2 mL/min
Conditions: protein: recombinant; tags: GFP-GST (N-term); label: Atto647N 5' on strand 1; blunt

B1: 90 bp dsDNA (90-mer) (dsDNA)
DNA 1: GATGTTCTGCTGGATATGCACTTTTCCGGGCTGACGTACACCGTGCTCAGCCTGTTTTTCAGCGATCCGGATATGCATCCGCTGGATTTC
DNA 2: GAAATCCAGCGGATGCATATCCGGATCGCTGAAAAACAGGCTGAGCACGGTGTACGTCAGCCCGGAAAAGTGCATATCCAGCAGAACATC
  Kd: 21 nM
